Measured values taken from patent publication US20200345804A1.
Where no end group is shown, it is not given here. [ ]: non-standard residue; d: D form. NMeA = CN[C@@H](C)C(=O)O

Tests used:
[1] = biological target: BIR3 domain of XIAP (human, residues 253-347, N-terminal His tag) (human); assay: ITC
[2] = biological target: BIR3 domain of XIAP (human, residues 253-347, N-terminal His tag) (human); assay: ITC, difference to N-Me-AVPF-NH2
[3] = biological target: recombinant BIR3 domain of cIAP1 with N-terminal 6xHis tag (Artificial Sequence); assay: DELFIA displacement of AVPI-Biotin
[4] = biological target: BIR2 domain of XIAP (Artificial Sequence); assay: DELFIA displacement assay on XIAP BIR2
[5] = biological target: BIR3 domain of XIAP (human, residues 253-347, N-terminal His tag) (human); assay: DELFIA displacement of AVPI-Biotin
[6] = biological target: recombinant BIR3 domain of cIAP2 with N-terminal 6xHis tag (Artificial Sequence); assay: DELFIA displacement, 2-h incubation
[7] = biological target: recombinant BIR3 domain of cIAP1 with N-terminal 6xHis tag (Artificial Sequence); assay: DELFIA displacement, 2-h incubation
[8] = biological target: BIR3 domain of XIAP (human, residues 253-347, N-terminal His tag) (human); assay: DELFIA displacement, 2-h incubation
[9] = biological target: recombinant BIR3 domain of cIAP2 with N-terminal 6xHis tag (Artificial Sequence); assay: DELFIA displacement of AVPI-Biotin
[10] = biological target: BIR3 domain of XIAP (human, residues 253-347, N-terminal His tag) (human); assay: ITC, full curve titration
[11] = biological target: recombinant BIR3 domain of cIAP2 with N-terminal 6xHis tag (Artificial Sequence); assay: DELFIA displacement of AVPI-Biotin; remark: listed apart in the source
Target sequence in this assay (chain, as listed by the source limits assumed): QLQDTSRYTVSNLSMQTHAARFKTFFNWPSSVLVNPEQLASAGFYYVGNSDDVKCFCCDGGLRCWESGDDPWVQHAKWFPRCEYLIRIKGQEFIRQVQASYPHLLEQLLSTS

[12] = biological target: recombinant BIR3 domain of cIAP1 with N-terminal 6xHis tag (Artificial Sequence); assay: DELFIA displacement of AVPI-Biotin; remark: listed apart in the source
Target sequence in this assay (chain, as listed by the source limits assumed): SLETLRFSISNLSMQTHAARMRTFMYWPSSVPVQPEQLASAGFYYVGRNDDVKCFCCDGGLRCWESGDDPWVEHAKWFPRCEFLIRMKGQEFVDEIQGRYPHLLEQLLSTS

[13] = biological target: BIR3 domain of XIAP (human, residues 253-347, N-terminal His tag) (human); assay: DELFIA displacement of AVPI-Biotin; remark: listed apart in the source
Target sequence in this assay (chain, as listed by the source): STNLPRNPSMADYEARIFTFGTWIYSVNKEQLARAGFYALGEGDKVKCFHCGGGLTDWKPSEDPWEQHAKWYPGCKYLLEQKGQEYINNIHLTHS

Molecule | -TΔS [1] [kcal/mol] | Kd [1] [nM] | ΔH [1] [kcal/mol] | δ(-TΔS) [2] [kcal/mol] | δ(ΔH) [2] [kcal/mol] | also measured
compound 6 (N-Me-Ala-P2-Pro-Phe-NH2, P2 = (3F-4CF3)Phe) (peptide) | -1.2 | 155 | -8.1 | -0.2 | -0.3 | 
NMe-Ala-pSFB-Dap-Pro-Phe-NH2 (peptide) |  |  |  |  |  | IC50 [4]: 2220 nM
compound 12 (N-Me-Ala-P2-Pro-Phe-NH2, P2 = (4-OCF3)Phe) (peptide) | -1.9 | 227 | -7.1 | -0.9 | 0.7 | 
MeHN-A-Dap(3-FSB)-P-F-NH2 (peptide) |  |  |  |  |  | IC50 [5]: 47.3 nM
compound 14 (N-Me-Ala-P2-Pro-Phe-NH2, P2 = (2F-4CF3-5Me)Phe) (peptide) | -3.3 | 81 | -6.4 | -2.3 | 1.4 | 
MeNH-A-hF(OSO2F)-P-F-CONH2 (peptide) |  |  |  |  |  | IC50 [6]: 188 nM; IC50 [7]: 26 nM; IC50 [8]: 197 nM
compound 8 (N-Me-Ala-P2-Pro-Phe-NH2, P2 = Cyclohexyl Glycine) (peptide) | -1.4 | 354 | -7.8 | -0.4 | 0 | 
compound 10 (N-Me-Ala-P2-Pro-Phe-NH2, P2 = (2F-4CF3)Phe) (peptide) | -1.8 | 194 | -7.4 | -0.8 | 0.4 | 
compound 7 (N-Me-Ala-P2-Pro-Phe-NH2, P2 = (3Cl-5CF3)Phe) (peptide) | -1.3 | 133 | -8 | -0.3 | -0.2 | 
MeNH-A-Dap(4-VSB)P-F-CONH2 (peptide) |  |  |  |  |  | IC50 [6]: 1.3 nM; IC50 [7]: 4.3 nM; IC50 [8]: 31 nM
MeHN-A-F(OSO2F)-P-F-CONH2 (peptide) |  |  |  |  |  | IC50 [6]: 343 nM
Ala-pTyr-Pro-(4F)Phe-NH2 (peptide) | 3.04 | 205 |  |  |  | ΔG [1]: -9.13 kcal/mol; IC50 [9]: 143 nM; IC50 [3]: 124 nM; IC50 [5]: 40.1 nM; ΔH [10]: -12.2 kcal/mol
MeHN-A-Dap(p-OSO2F-Benzamide)-P-F-CONH2 (peptide) |  |  |  |  |  | IC50 [6]: > 1000 nM; IC50 [7]: 335 nM
compound 9 (N-Me-Ala-P2-Pro-Phe-NH2, P2 = Dab) (peptide) | -1.4 | 230 | -7.7 | -0.4 | 0.1 | 
AVPI (peptide) | -4 | 825 |  |  |  | ΔG [1]: -8.3 kcal/mol; IC50 [9]: 320 nM; IC50 [5]: 957 nM; ΔH [10]: -4.3 kcal/mol
MeHN-A-Dap(4-FSBz)-P-F-CONH2 (peptide) |  |  |  |  |  | IC50 [6]: 85.7 nM; IC50 [7]: 18.6 nM; IC50 [8]: 17.1 nM
AVPF |  | 175 |  |  |  | IC50 [11]: 168 nM; IC50 [12]: 50.9 nM; IC50 [13]: 60 nM; ΔH [10]: -7.64 kcal/mol

More lines, main results first:

-TΔS [1] [kcal/mol] | Kd [1] [nM] | ΔH [1] [kcal/mol] | δ(-TΔS) [2] [kcal/mol] | δ(ΔH) [2] [kcal/mol] | Molecule | also measured
-0.9 | 190 | -8.3 | 0.1 | -0.5 | compound 5 (N-Me-Ala-P2-Pro-Phe-NH2, P2 = (3Cl-4CF3)Phe) (peptide) | 
 |  |  | 0 | -0.5 | compound 2 (N-Me-Ala-P2-Pro-Phe-NH2, P2 = (4SO3^-)-Phe) (peptide) | IC50 [3]: 144 nM
-0.1 | 280 | -8.9 | 0.9 | -1.1 | compound 3 (N-Me-Ala-P2-Pro-Phe-NH2, P2 = (4-NO2)-Phe) (peptide) | 
-1.9 | 213 | -7.2 | -0.9 | 0.6 | compound 11 (N-Me-Ala-P2-Pro-Phe-NH2, P2 = Phe(4-CF3)) (peptide) | 
 |  |  | 4 | -4.4 | N-Me-Ala-(p-phosphonomethyl)Phe-Pro-Phe-NH2 (peptide) | IC50 [5]: 35 nM
-2.3 | 182 | -6.9 | -1.3 | 0.9 | compound 13 (N-Me-Ala-P2-Pro-Phe-NH2, P2 = (p-guanidino)Phe) (peptide) | 
-1 |  | -7.8 |  |  | [NMeA]VPF-NH2 [N-Me-AVPF-NH2] | 
